Reference: patent US20210087522

How the values were obtained:
[1] = molecular target: T1, AFACP, ACP of the FAS from Anabaena
T1 chain: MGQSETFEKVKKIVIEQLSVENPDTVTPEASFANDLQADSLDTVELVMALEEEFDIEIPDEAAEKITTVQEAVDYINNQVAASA

[2] = molecular target: T2, APACP, ACP of the glycolipid PKS in Anabaena
T2 chain: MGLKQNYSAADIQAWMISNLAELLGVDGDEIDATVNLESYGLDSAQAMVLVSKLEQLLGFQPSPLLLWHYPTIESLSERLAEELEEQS

[3] = molecular target: T3, APNPCP, CP of an uncharacterized NRP/PK gene cluster from Anabaena
T3 chain: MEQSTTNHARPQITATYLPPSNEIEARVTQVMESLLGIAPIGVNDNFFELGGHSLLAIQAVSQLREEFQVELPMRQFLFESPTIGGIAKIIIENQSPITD

[4] = molecular target: AprACP, ACP of the apratoxin (PK/NRP) gene cluster in Lyngbya sp.
[5] = molecular target: T4, FNPCP, CP of an uncharacterized NRP gene cluster from Fischerella
T4 chain: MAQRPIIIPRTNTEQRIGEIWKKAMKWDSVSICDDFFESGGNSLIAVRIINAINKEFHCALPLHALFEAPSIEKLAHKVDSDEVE

[6] = molecular target: T5, FNsACP, homolog of ArCPNp from Fischerella
T5 chain: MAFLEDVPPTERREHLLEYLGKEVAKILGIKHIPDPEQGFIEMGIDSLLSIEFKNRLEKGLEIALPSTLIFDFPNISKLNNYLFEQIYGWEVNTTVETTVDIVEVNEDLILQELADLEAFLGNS

[7] = molecular target: T6, FisPCP, PCP of the shinorine gene cluster from Fischerella
T6 chain: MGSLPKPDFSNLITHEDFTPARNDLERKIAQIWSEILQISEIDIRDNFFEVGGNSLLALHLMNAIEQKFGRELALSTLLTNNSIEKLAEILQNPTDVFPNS

[8] = molecular target: T7, MACP, CP of an uncharacterized NRP/PK gene cluster from M. aeruginosa NIES843
T7 chain: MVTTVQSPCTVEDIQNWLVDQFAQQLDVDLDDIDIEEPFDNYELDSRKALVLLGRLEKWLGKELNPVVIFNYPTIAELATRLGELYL

[9] = molecular target: T8, SFACP, ACP of the FAS from Synechocystis
T8 chain: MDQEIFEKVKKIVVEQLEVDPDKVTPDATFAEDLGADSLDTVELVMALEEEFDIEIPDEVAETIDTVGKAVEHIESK

[10] = molecular target: ScACP, ACP of a putative concanamycin gene cluster from Streptomyces coelicolor A(3)2
[11] = molecular target: T9, SsPCP, PCP of a thaxtomin cluster from Streptomyces scabiei 87.22
T9 chain: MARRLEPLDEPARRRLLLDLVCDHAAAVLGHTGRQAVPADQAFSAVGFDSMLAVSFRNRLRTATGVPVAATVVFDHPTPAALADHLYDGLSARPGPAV

B1: SPPT, Sfp-like phosphopantetheinyl transferase (PPTase) from Synechocystis sp. PCC6803 (protein)
chain: MLPQPQIWLCPTDRPLIPGYQALLSSEEMARGERYQRPQDKQRFLTMRLALRILLARQLDCLPQQLQFTYGPQGKPELVDRERRSPWFNVAHSGNYGLIGLSTEGEIGVDLQIMLPKPHYLKLAKRFFAPQEVQQLESLEGEKRTKLFYQLWTAKEAFLKATGKGISGGLNQVIPDENLAKYQYLPDSGDTNHWRLSSQPLLADQGSNDNYWMAIAWCTNEVNQVESNYLPNIQPFQWPRNLDSLP
Km [1]: 13.3 µM | kcat [1]: 0.245 s⁻¹ | kcat/Km [1]: 18300 M⁻¹ s⁻¹ | phosphopantetheinylation of CP (apo to holo), LC-MS [1]: SPPT also phosphopantetheinylated all CP substrates except ScACP | relative conversion (most active PPTase = 100%) [1]: SPPT promoted >71% relative conversion of eight cyanobacterial CPs | Km [2]: 26.5 µM | kcat [2]: 0.243 s⁻¹ | kcat/Km [2]: 8330 M⁻¹ s⁻¹ | phosphopantetheinylation of CP (apo to holo), LC-MS [2]: SPPT also phosphopantetheinylated all CP substrates except ScACP | relative conversion (most active PPTase = 100%) [2]: SPPT promoted >71% relative conversion of eight cyanobacterial CPs | Km [3]: 17 µM | kcat [3]: 0.0383 s⁻¹ | kcat/Km [3]: 1670 M⁻¹ s⁻¹ | phosphopantetheinylation of CP (apo to holo), LC-MS [3]: SPPT also phosphopantetheinylated all CP substrates except ScACP | Km [4]: 12.9 µM | kcat [4]: 0.218 s⁻¹ | kcat/Km [4]: 16700 M⁻¹ s⁻¹ | phosphopantetheinylation of CP (apo to holo), LC-MS [4]: SPPT also phosphopantetheinylated all CP substrates except ScACP | relative conversion (most active PPTase = 100%) [4]: SPPT promoted >71% relative conversion of eight cyanobacterial CPs | Km [5]: 7 µM | kcat [5]: 0.168 s⁻¹ | kcat/Km [5]: 23300 M⁻¹ s⁻¹ | phosphopantetheinylation of CP (apo to holo), LC-MS [5]: SPPT also phosphopantetheinylated all CP substrates except ScACP | Km [6]: 14.1 µM | kcat [6]: 0.025 s⁻¹ | kcat/Km [6]: 1670 M⁻¹ s⁻¹ | phosphopantetheinylation of CP (apo to holo), LC-MS [6]: SPPT also phosphopantetheinylated all CP substrates except ScACP | relative conversion (most active PPTase = 100%) [6]: SPPT promoted >71% relative conversion of eight cyanobacterial CPs | Km [7]: 10 µM | kcat [7]: 0.0417 s⁻¹ | kcat/Km [7]: 5000 M⁻¹ s⁻¹ | phosphopantetheinylation of CP (apo to holo), LC-MS [7]: SPPT also phosphopantetheinylated all CP substrates except ScACP | Km [8]: 22 µM | kcat [8]: 0.0717 s⁻¹ | kcat/Km [8]: 3330 M⁻¹ s⁻¹ | phosphopantetheinylation of CP (apo to holo), LC-MS [8]: SPPT also phosphopantetheinylated all CP substrates except ScACP | relative activity (most active PPTase = 100%) [8]: the low or no activity toward MACP, SsPCP and ScACP | Km [9]: 1.5 µM | kcat [9]: 0.0233 s⁻¹ | kcat/Km [9]: 6500 M⁻¹ s⁻¹ | phosphopantetheinylation of CP (apo to holo), LC-MS [9]: SPPT also phosphopantetheinylated all CP substrates except ScACP | relative conversion (most active PPTase = 100%) [9]: SPPT promoted >71% relative conversion of eight cyanobacterial CPs | phosphopantetheinylation of CP (apo to holo), LC-MS; not modified [10]: SPPT also phosphopantetheinylated all CP substrates except ScACP | relative activity (most active PPTase = 100%) [10]: the low or no activity toward MACP, SsPCP and ScACP | Km [11]: 14.3 µM | kcat [11]: 0.0167 s⁻¹ | kcat/Km [11]: 1000 M⁻¹ s⁻¹ | phosphopantetheinylation of CP (apo to holo), LC-MS [11]: SPPT also phosphopantetheinylated all CP substrates except ScACP | relative activity (most active PPTase = 100%) [11]: the low or no activity toward MACP, SsPCP and ScACP

B2: FPPT, Sfp-like phosphopantetheinyl transferase (PPTase) from Fischerella sp. PCC9339 (protein)
chain: MGSETNHLWLTAPTNLTLLPDDVHVWRISLDRPESELQALQTTLSSDEIARAQRFYFEQHRQRFVAGRGILRTILGRYLGVEPQAVEFTYELRGKPLLADRFADSGVSFNLSHSQDLALCGVSRNRKIGIDVEYMRSVSDVEALAERFFAPREYEVVRSLPSNQQQQVFFRYWTCKEAYLKAIGVGIVQLEKVEISLTLEQPAKLITDEEWSLIELVPGDHYLGAVAIAGQNLDLKYWQY
phosphopantetheinylation of CP (apo to holo), LC-MS; no activity [3]: FPPT shared the same substrate scope as SePPT with the exception of its low activity toward SsPCP | phosphopantetheinylation of CP (apo to holo), LC-MS; no activity [8]: FPPT shared the same substrate scope as SePPT with the exception of its low activity toward SsPCP | relative activity (most active PPTase = 100%) [8]: FPPT was not competent to activate SsPCP, APACP, APNPCP, MACP, and ScACP | phosphopantetheinylation of CP (apo to holo), LC-MS; no activity [10]: FPPT shared the same substrate scope as SePPT with the exception of its low activity toward SsPCP | phosphopantetheinylation of CP (apo to holo), LC-MS; low activity [11]: FPPT shared the same substrate scope as SePPT with the exception of its low activity toward SsPCP | relative activity (most active PPTase = 100%) [11]: FPPT was not competent to activate SsPCP, APACP, APNPCP, MACP, and ScACP

B3: Sfp, phosphopantetheinyl transferase from Bacillus subtilis (protein)
chain: MKIYGIYMDRPLSQEENERFMTFISPEKREKCRRFYHKEDAHRTLLGDVLVRSVISRQYQLDKSDIRFSTQEYGKPCIPDLPDAHFNISHSGRWVIGAFDSQPIGIDIEKTKPISLEIAKRFFSKTEYSDLLAKDKDEQTDYFYHLWSMKESFIKQEGKGLSLPLDSFSVRLHQDGQVSIELPDSHSPCYIKTYEVDPGYKMAVCAAHPDFPEDITMVSYEELL
Km [1]: 11.6 µM | kcat [1]: 0.163 s⁻¹ | kcat/Km [1]: 13300 M⁻¹ s⁻¹ | phosphopantetheinylation of CP (apo to holo), LC-MS [1]: APPT, AvPPT, MPPT and Sfp functionalized all substrates | Km [2]: 15.3 µM | kcat [2]: 0.368 s⁻¹ | kcat/Km [2]: 25000 M⁻¹ s⁻¹ | phosphopantetheinylation of CP (apo to holo), LC-MS [2]: APPT, AvPPT, MPPT and Sfp functionalized all substrates | Km [3]: 12 µM | kcat [3]: 0.0367 s⁻¹ | kcat/Km [3]: 3330 M⁻¹ s⁻¹ | phosphopantetheinylation of CP (apo to holo), LC-MS [3]: APPT, AvPPT, MPPT and Sfp functionalized all substrates | Km [4]: 9 µM | kcat [4]: 0.0483 s⁻¹ | kcat/Km [4]: 5000 M⁻¹ s⁻¹ | phosphopantetheinylation of CP (apo to holo), LC-MS [4]: APPT, AvPPT, MPPT and Sfp functionalized all substrates | Km [5]: 11.7 µM | kcat [5]: 0.242 s⁻¹ | kcat/Km [5]: 20000 M⁻¹ s⁻¹ | phosphopantetheinylation of CP (apo to holo), LC-MS [5]: APPT, AvPPT, MPPT and Sfp functionalized all substrates | Km [6]: 10.9 µM | kcat [6]: 0.04 s⁻¹ | kcat/Km [6]: 3330 M⁻¹ s⁻¹ | phosphopantetheinylation of CP (apo to holo), LC-MS [6]: APPT, AvPPT, MPPT and Sfp functionalized all substrates | Km [7]: 14 µM | kcat [7]: 0.0283 s⁻¹ | kcat/Km [7]: 1670 M⁻¹ s⁻¹ | phosphopantetheinylation of CP (apo to holo), LC-MS [7]: APPT, AvPPT, MPPT and Sfp functionalized all substrates | Km [8]: 6.7 µM | kcat [8]: 0.085 s⁻¹ | kcat/Km [8]: 13300 M⁻¹ s⁻¹ | phosphopantetheinylation of CP (apo to holo), LC-MS [8]: APPT, AvPPT, MPPT and Sfp functionalized all substrates | Km [9]: 2.5 µM | kcat [9]: 0.0367 s⁻¹ | kcat/Km [9]: 15000 M⁻¹ s⁻¹ | phosphopantetheinylation of CP (apo to holo), LC-MS [9]: APPT, AvPPT, MPPT and Sfp functionalized all substrates | Km [10]: 8.3 µM | kcat [10]: 0.253 s⁻¹ | kcat/Km [10]: 30000 M⁻¹ s⁻¹ | phosphopantetheinylation of CP (apo to holo), LC-MS [10]: APPT, AvPPT, MPPT and Sfp functionalized all substrates | relative activity (most active PPTase = 100%) [10]: Among all PPTases, Sfp showed the highest relative activity toward ScACP and SsPCP | Km [11]: 7.9 µM | kcat [11]: 0.278 s⁻¹ | kcat/Km [11]: 35000 M⁻¹ s⁻¹ | phosphopantetheinylation of CP (apo to holo), LC-MS [11]: APPT, AvPPT, MPPT and Sfp functionalized all substrates | relative activity (most active PPTase = 100%) [11]: Among all PPTases, Sfp showed the highest relative activity toward ScACP and SsPCP

B4: SePPT, Sfp-like phosphopantetheinyl transferase (PPTase) from Synechococcus elongatus PCC7942 (protein)
chain: MQRPNPSDAVPVPSIPSCDRGPIPNPVTWRTSPEPLFLSAQTVHLWRCSLTRSLSSAEQAIVAADCDRAQAYGSNRRHQFLCGRWWLRQLLSLYLPEEPADFRFQLSPTGKPELPQSNLCFNLSHSGSTLLIAIAWQPVGVDVEQPRSRSWLALARRYFPSAELAAMQQSTDCDRWGLASWVCKEAWIKAQGRTLANSLRHLQCAWTANGQPRLSGLGSEESQVQLLQVDPQEQLWAAIAMPAGWNYQTWTAAIIRKNH
relative activity (most active PPTase = 100%) [1]: SePPT demonstrated strong activity toward two ACPs of FASs but no others | phosphopantetheinylation of CP (apo to holo), LC-MS; no activity [3]: SePPT showed no activity toward APNPCP, MACP, ScACP, and SsPCP | phosphopantetheinylation of CP (apo to holo), LC-MS; no activity [8]: SePPT showed no activity toward APNPCP, MACP, ScACP, and SsPCP | relative activity (most active PPTase = 100%) [9]: SePPT demonstrated strong activity toward two ACPs of FASs but no others | phosphopantetheinylation of CP (apo to holo), LC-MS; no activity [10]: SePPT showed no activity toward APNPCP, MACP, ScACP, and SsPCP | phosphopantetheinylation of CP (apo to holo), LC-MS; no activity [11]: SePPT showed no activity toward APNPCP, MACP, ScACP, and SsPCP
